From US10787647B2, “HSD17B13 variants and uses thereof” (Regeneron Pharmaceuticals, Inc., priority 2017, dated 2020)

T1: recombinant human HSD17B13 (Homo sapiens, UniProt Q7Z5P4)
T1 sequence (Q7Z5P4 20-300): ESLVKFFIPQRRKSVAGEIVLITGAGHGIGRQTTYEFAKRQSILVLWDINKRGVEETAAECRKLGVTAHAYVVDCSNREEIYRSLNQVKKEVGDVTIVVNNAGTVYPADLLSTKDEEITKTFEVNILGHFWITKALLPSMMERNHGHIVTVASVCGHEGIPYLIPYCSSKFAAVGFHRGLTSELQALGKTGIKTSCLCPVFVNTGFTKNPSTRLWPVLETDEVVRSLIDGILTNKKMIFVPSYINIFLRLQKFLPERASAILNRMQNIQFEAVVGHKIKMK

T2: HSD17B13 (Homo sapiens, UniProt Q7Z5P4)
T2 construct: Transcript A, which encodes the full-length 300 amino acid protein; 10x His (C); host or cells: E. coli
T2 sequence (Q7Z5P4 with tags, fused parts or gaps): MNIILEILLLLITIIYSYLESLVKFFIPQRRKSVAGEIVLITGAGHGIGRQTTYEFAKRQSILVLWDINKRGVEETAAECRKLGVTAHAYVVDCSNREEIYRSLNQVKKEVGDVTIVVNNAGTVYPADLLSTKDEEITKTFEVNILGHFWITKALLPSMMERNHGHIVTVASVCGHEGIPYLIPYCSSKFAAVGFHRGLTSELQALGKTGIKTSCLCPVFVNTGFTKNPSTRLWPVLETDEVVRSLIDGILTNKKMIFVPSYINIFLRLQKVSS


Experiments:
[1] = biological target: T1, recombinant human HSD17B13; test: Substrate screening of steroid and bioactive lipid libraries against purified recombinant HSD17B13 (NADH-Glo); format: biochemical; conditions: putative substrate screen with recombinant protein
Procedure: Reactions were performed in a final volume of 40 μL of assay buffer (0.2 M Tris-HCl, pH 7.5) which contained 500 μM NAD^±, 5 μM bioactive lipid or 50 μM steroid (all in a final concentration of 5% DMSO), and 100 ng recombinant human HSD17B13. Reactions were incubated for 3 hours, at 23° C., after which an equal volume NADH-Glo Detection Reagent (Promega) was added. Following a 1 hour incubation at 23° C., the relative light units (RLUs) were measured on an Envision Plate Reader (Perkin Elmer). Raw RLU values were normalized as percent of control (50 μM estradiol) following subtraction of negative control (5% DMSO) using the following formula: Percent of control (POC)=100×(Sample (RLU)−Negative CTRLaverage)/(Positive CTRLaverage−Negative CTRLaverage).

[2] = test system: HepG2 cells; test: Quantification of intracellular triglyceride content in stable cell lines; format: cell-based, human; conditions: for intracellular triglyceride content versus GFP control: cell lines overexpressing isoform, oleic acid treatment
Procedure: HepG2 cells were cultured in Eagle's Minimum Essential Medium supplemented with 10% fetal bovine serum. HSD17B13 transcripts A and D were sub-cloned into Myc-DDK backbone lentivirus constructs, and lentivirus were generated. HepG2 cells were infected with lentivirus carrying the HSD17B13 transcripts. Stable cell lines expressing each HSD17B13 transcript were selected with 1-3 mg/ml Geneticin G-418 sulfate in complete culture medium for two weeks. Following fixation, HSD17B13 isoforms were detected with mouse anti-Myc antibody. Lipid droplets were labeled with BODIPY FL dye (Sigma). Secondary antibodies for immunofluorescence were Alexa Fluor 488 donkey anti-rabbit IgG and Alexa Fluor 594 donkey anti-mouse IgG (Jackson ImmunoResearch).
The triglyceride (TG) content from the stable cells was determined using a TG quantification kit (Abcam). In the assay, TG are converted to free fatty acids and glycerol. The glycerol is then oxidized to generate a product which is quantified (spectrophotometry at λ=570 nm).

[3] = test system: HEK293 cells overexpressing HSD17B13 transcript A, transcript D or GFP; test: Cell-based estradiol to estrone conversion in culture media (LC-MS); design: species or system human; conditions: overexpressed in HEK293 cells, estradiol 1 μM, 48 hours
Procedure: HEK293 cells overexpressing HSD17B13 transcript A, transcript D or green fluorescent protein (GFP, control) were used to investigate the activity of HSD17B13 against estradiol in a cell-based assay. Estradiol (1 μM) was fed to each cell type. After 48 hours, the media was collected and the concentration of estradiol and its converted product estrone were identified and quantified by LC-MS.

[4] = biological target: T2, HSD17B13; test: In vitro enzymatic activity of recombinant HSD17B13 isoforms A and D (NADH production, NAD(P)H-Glo); format: biochemical
Procedure: Recombinant human HSD17B13 protein was purified from E. coli (Genscript) transformed with plasmid DNA harboring HSD17B13 transcript A or transcript D. The HSD17B13 variants contained a 10× His tag at the C terminus and were purified from soluble fraction using a Ni2^+ affinity purification. Enzymatic activity was determined through measurement of NADH production using the NAD(P)H-Glo Detection System (Promega). Reactions were performed for 3 hours at 25° C. in 0.2 M Tris-HCl, pH 7.5, 0.5 mM NAD^+, 75 μM of substrate (Sigma) and 500 ng purified enzyme in a final volume of 100 μL. After incubation, 20 μL of the reaction was combined with 20 μL luciferase reagent (Promega), incubated at room temperature for 1 hour and read on an Envision Plate Reader (Perkin Elmer).

enzymatically converted by HSD17B13 (oxidation of a hydroxyl to a ketone group) [1]	Molecule	conversion of estradiol (substrate) to estrone (product) measured in the culture media [3]	intracellular triglyceride content versus GFP control [2]	other results
enzymatically converted	CCCCCC(O)C=CC=CCCCCCCCC(=O)O (stereo not drawn) [13-Hydroxyoctadecadienoic acid]			
enzymatically converted	C[C@]12CC[C@@H]3c4ccc(O)cc4CC[C@H]3[C@@H]1CC[C@@H]2O [estradiol, 17-beta estradiol]			

The remaining lines, values behind:

Molecule	enzymatically converted by HSD17B13 (oxidation of a hydroxyl to a ketone group) [1]	conversion of estradiol (substrate) to estrone (product) measured in the culture media [3]	intracellular triglyceride content versus GFP control [2]	other results
CCCCC/C=C\C[C@@H](O)/C=C/C=C/C=C\[C@@H](O)CCCC(=O)O [leukotriene B4]	enzymatically converted			
CCCCCCCC/C=C\CCCCCCCC(=O)O [oleic acid, reference compound]				triglyceride (TG) content ([2]; increasing concentrations of oleic acid, HepG2 GFP control and HSD17B13 Transcript A and D cell lines): increased triglyceride (TG) content
HSD17B13 Isoform D: HSD17B13 Protein Isoform D, SEQ ID NO: 15; prematurely truncated protein encoded by Transcript D of the rs72613567 variant (protein, listed as Homo sapiens, (1)..(70) Region Encoded by Exon 1; (71)..(106) Region Encoded by Exon 2; (107)..(150) Region Encoded by Exon 3; (151)..(185) Region Encoded by Exon 4; (186)..(232) Region Encoded by Exon 5; (233)..(271) Region Encoded by Exon 6v2; (272)..(274) Region Encoded by Exon 7) MNIILEILLLLITIIYSYLESLVKFFIPQRRKSVAGEIVLITGAGHGIGRQTTYEFAKRQSILVLWDINKRGVEETAAECRKLGVTAHAYVVDCSNREEIYRSLNQVKKEVGDVTIVVNNAGTVYPADLLSTKDEEITKTFEVNILGHFWITKALLPSMMERNHGHIVTVASVCGHEGIPYLIPYCSSKFAAVGFHRGLTSELQALGKTGIKTSCLCPVFVNTGFTKNPSTRLWPVLETDEVVRSLIDGILTNKKMIFVPSYINIFLRLQKVSS		did not show much conversion	No differences	conversion of estradiol (substrate) to estrone (product) measured in the culture media ([3]; listed as HSD17B13 isoform D): greatly reduced activity; activity towards the three substrates ([4]; estradiol, leukotriene B4, 13-Hydroxyoctadecadienoic acid, recombinant protein in vitro): greatly reduced activity; activity towards estradiol in vitro compared to HSD17B13 isoform A ([4]; estradiol, recombinant protein, NAD cofactor): greatly reduced activity; enzymatic activity of the corresponding values for Isoform A ([4]; substrates 17-beta estradiol, leukotriene B4, 13(S)-HODE, recombinant protein): < 10%
HSD17B13 Isoform A: HSD17B13 Protein Isoform A, SEQ ID NO: 12; full-length 300 amino acid protein encoded by Transcript A (protein, listed as Homo sapiens, (1)..(70) Region Encoded by Exon 1; (71)..(106) Region Encoded by Exon 2; (107)..(150) Region Encoded by Exon 3; (151)..(185) Region Encoded by Exon 4; (186)..(232) Region Encoded by Exon 5; (233)..(271) Region Encoded by Exon 6v1; (272)..(300) Region Encoded by Exon 7) MNIILEILLLLITIIYSYLESLVKFFIPQRRKSVAGEIVLITGAGHGIGRQTTYEFAKRQSILVLWDINKRGVEETAAECRKLGVTAHAYVVDCSNREEIYRSLNQVKKEVGDVTIVVNNAGTVYPADLLSTKDEEITKTFEVNILGHFWITKALLPSMMERNHGHIVTVASVCGHEGIPYLIPYCSSKFAAVGFHRGLTSELQALGKTGIKTSCLCPVFVNTGFTKNPSTRLWPVLETDEVVRSLIDGILTNKKMIFVPSYINIFLRLQKFLPERASAILNRMQNIQFEAVVGHKIKMK		robust conversion	No differences	
